T1: AtWRKY40 DBD (Arabidopsis thaliana, UniProt Q9SAH7 131-207)
T1 sequence: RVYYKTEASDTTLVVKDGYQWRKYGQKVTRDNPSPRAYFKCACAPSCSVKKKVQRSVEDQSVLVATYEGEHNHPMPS

B1: RLP43 W-box 5mC4 (dsDNA)
DNA 1: CGTAGGGTCAAGCTGT
DNA 2: ACAGCTTGACCCTACG
modifications: 5-methyl-dC at forward strand position 9 (W-box C4)
B2: RLP43 W-box 5mC4 + 5mC1 5mC2 (dsDNA)
DNA 1: CGTAGGGTCAAGCTGT
DNA 2: ACAGCTTGACCCTACG
modifications: 5-methyl-dC at forward position 9 (C4) and reverse positions 10 and 11 (C2, C1)
B3: RLP43 W-box, unmethylated (dsDNA)
DNA 1: CGTAGGGTCAAGCTGT
DNA 2: ACAGCTTGACCCTACG

target: T1, AtWRKY40 DBD; assay: BLI; steady state; BLI (Octet RED96e, SA sensors): 50 mM Hepes pH 7, 150 mM NaCl, 0.05% Tween20, 25 C, 1000 rpm; duplex loaded at 40 nM, protein 0.25-10 uM; settings: protein: recombinant; tags: N-terminal 6xHis (pET28a); label: biotin on forward strand (printed at 5' end); blunt

**Q.** For B1, which Kd is on record?
**A.** Its Kd is 12 µM.

**Q.** How did the Kd turn out when B2 was run?
**A.** The Kd was 9.2 µM.

**Q.** How did the Kd turn out when B3 was run?
**A.** Its Kd is 0.63 µM.

From publication doi:10.1101/2022.09.26.509487, “DNA methylation at a single cytosine embedded in the W-box cis-element repels binding of WRKY transcription factors through steric hindrance”
